Measured values: patent publication US7232659

Key:
[1] = molecular target: FPR-GFP fusion protein (human; Aequorea victoria), P21462; assay: Kd from competition on wild type FPR divided by EC50 of LRG assembly with FPR-GFP
[2] = molecular target: T1, formyl peptide receptor (FPR), wild type, detergent-solubilized (human), P21462; assay: spectrofluorimetric competition with L^F for solubilized FPR, IC50 converted to Kd
T1 chain: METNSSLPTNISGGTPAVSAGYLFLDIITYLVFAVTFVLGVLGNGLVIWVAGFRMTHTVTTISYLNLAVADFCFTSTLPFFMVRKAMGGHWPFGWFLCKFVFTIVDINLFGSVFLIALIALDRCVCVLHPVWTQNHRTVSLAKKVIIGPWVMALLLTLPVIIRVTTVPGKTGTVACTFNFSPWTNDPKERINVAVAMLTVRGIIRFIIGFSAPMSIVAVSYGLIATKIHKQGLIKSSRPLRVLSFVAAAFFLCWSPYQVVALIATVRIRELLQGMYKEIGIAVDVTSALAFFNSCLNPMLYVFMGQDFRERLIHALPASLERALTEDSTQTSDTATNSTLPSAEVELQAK

[3] = molecular target: FPR-GFP fusion protein (human; Aequorea victoria), P21462; assay: flow cytometry, LRG assembly of 30 nM FPR-GFP on αβγ DCNi beads, ligand varied (FIG. 13B)

ratio of Kd (for LR) to EC50 (for LRG formation) [1]: 2.8
Kd [2]: 75 nM
EC50 [3]: 27 nM
Binder: MLFF (modifications not checked) [fMLFF]
